Test results published in patent publication US5844093.

Key:
[1] = molecular target: EGFR on EGFR-bearing tumor cells (human) (UniProt P00533); test: flow cytometry, A431 cells, crude bacterial supernatant
[2] = molecular target: EGFR on EGFR-bearing tumor cells (human) (UniProt P00533); test: flow cytometry, HT29 cells, crude bacterial supernatant
[3] = molecular target: EGFR on EGFR-bearing tumor cells (human) (UniProt P00533); test: flow cytometry, MDA MB 231 cells, crude bacterial supernatant

scFv derived from MAb 425 gave a mean of arbritary fluorescence units (arbitrary fluorescence units) [1] of 85.5, a mean of arbritary fluorescence units (arbitrary fluorescence units) [2] of 2.5 and a mean of arbritary fluorescence units (arbitrary fluorescence units) [3] of 21.3.
